Test results as given in patent US11542479B2, “Alcohol dehydrogenase mutant and use thereof” (priority 2019, dated 2023).

Experiments:
Type in all cases: biochemical
[1] = biological target: alcohol dehydrogenase (KpADH, SEQ ID NO: 1) mutant S5, Q136N/F161V/S196G/E214G/S237C (Vanderwaltozyma polyspora, UniProt A7TM80, E214G/F161V/Q136N/S196G/S237C); assay: Kinetic parameters in asymmetric reduction of (4-chlorophenyl)-(pyridin-2-yl)-methanone, mutant S5; conditions: mutant S5 vs wild type, to (S)-alcohol
Method: (§1) The detection method of enzyme activity of the alcohol dehydrogenase is as follows:
(§2) A sodium phosphate buffer (PBS, 100 mM, pH 7.0) containing 1 mM NADPH and 1.0 mM substrate prochiral (4-chlorophenyl)-(pyridin-2-yl)-methanone is stood at 30° C. for 2 min, and then 10 μL of a pure enzyme solution is added to the sodium phosphate buffer, and reacted at 30° C. During the reaction, the change in absorbance of the reaction solution at 340 nm is measured on a microplate reader, and used to calculate the enzyme activity.
(§3) The initial reduction activity of wild-type alcohol dehydrogenase and alcohol dehydrogenase mutants M63, M64 and S5 obtained in Example 1 were respectively determined with 0.1-5 mM prochiral diaryl ketone (4-chlorophenyl)-(pyridin-2-yl)-methanone as a substrate. The data was fitted by the nonlinear regression method in Graph Pad Prism 7.0 software, to obtain the Km and Vmax in Michaelis-Menten equation. Then kcat and kcat/Km were calculated.
(§4) kcat is calculated by the formula kcat=Vmax·M/60, where M is the molecular weight of the enzyme, in kDa.

[2] = biological target: alcohol dehydrogenase (KpADH, SEQ ID NO: 1) mutant M63, K36I/T132D/N159D/K210E/T248A/Q272L (Vanderwaltozyma polyspora, UniProt A7TM80, K210E/K36I/N159D/Q272L/T132D/T248A); assay: Kinetic parameters in asymmetric reduction of (4-chlorophenyl)-(pyridin-2-yl)-methanone, mutant M63; conditions: mutant M63 vs wild-type alcohol dehydrogenase
Method: as §1, §2, §3, §4

[3] = biological target: alcohol dehydrogenase (KpADH, SEQ ID NO: 1) mutant M64, K36I/T132D/N159D/K210E/T248A/Q272L/Q136N/F161V/S196G/E214G/S237C (Vanderwaltozyma polyspora, UniProt A7TM80, E214G/F161V/K210E/K36I/N159D/Q136N/Q272L/S196G/S237C/T132D/T248A); assay: Kinetic parameters in asymmetric reduction of (4-chlorophenyl)-(pyridin-2-yl)-methanone, mutant M64
Method: as §1, §2, §3, §4

[4] = test system: O=C(c1ccc(Cl)cc1)c1ccccn1; assay: Kinetic parameters in asymmetric reduction of (4-chlorophenyl)-(pyridin-2-yl)-methanone, mutant S5; conditions: other: mutant S5; 0.1-5 mM substrate; pH 7.0; 30.0 °C
Method: as §1, §2, §3, §4

[5] = test system: O=C(c1ccc(Cl)cc1)c1ccccn1; assay: Kinetic parameters in asymmetric reduction of (4-chlorophenyl)-(pyridin-2-yl)-methanone, mutant M64; conditions: other: mutant M64; 0.1-5 mM substrate; pH 7.0; 30.0 °C
Method: as §1, §2, §3, §4

[6] = test system: O=C(c1ccc(Cl)cc1)c1ccccn1; assay: Kinetic parameters in asymmetric reduction of (4-chlorophenyl)-(pyridin-2-yl)-methanone, mutant M63; conditions: other: mutant M63; 0.1-5 mM substrate; pH 7.0; 30.0 °C
Method: as §1, §2, §3, §4

[7] = test system: O=C(c1ccc(Cl)cc1)c1ccccn1; assay: Kinetic parameters in asymmetric reduction of (4-chlorophenyl)-(pyridin-2-yl)-methanone, wild type; conditions: other: wild type; 0.1-5 mM substrate; pH 7.0; 30.0 °C
Method: as §1, §2, §3, §4

Q: What does the source list for `O=C(c1ccc(Cl)cc1)c1ccccn1` [(4-chlorophenyl)-(pyridin-2-yl)-methanone]?
A: catalytic efficiency compared with wild type [1]: decreased compared with the wild type; catalytic efficiency relative to wild type [2]: 1.3 times; catalytic efficiency relative to mutant S5 ([3]; mutant M64 vs mutant S5): 1.35 times; catalytic efficiency compared with wild type ([3]; mutant M64 vs wild type, to (S)-alcohol): close to that of the wild type

Q: Which Km [4] does the source give for “alcohol dehydrogenase (KpADH, SEQ ID NO: 1) mutant S5, Q136N/F161V/S196G/E214G/S237C (Vanderwaltozyma polyspora DSM 70294; E214G/F161V/Q136N/S196G/S237C)” here?
A: Its Km is 1090 ± 100 µM.

Q: What about the Vmax [4] of the same compound?
A: The Vmax was 24.4 µmol/min/mg.

Q: What about the kcat [4] of the same compound?
A: Its kcat is 16.1 ± 1.7 s⁻¹.

Q: And the kcat/Km [4]?
A: Its kcat/Km is 14800 M⁻¹ s⁻¹.

Q: Which results are given for “alcohol dehydrogenase (KpADH, SEQ ID NO: 1) mutant M64, K36I/T132D/N159D/K210E/T248A/Q272L/Q136N/F161V/S196G/E214G/S237C (Vanderwaltozyma polyspora DSM 70294; E214G/F161V/K210E/K36I/N159D/Q136N/Q272L/S196G/S237C/T132D/T248A)”?
A: Km [5]: 860 ± 140 µM; Vmax [5]: 25.1 µmol/min/mg; kcat [5]: 17.4 ± 1.1 s⁻¹; kcat/Km [5]: 20300 M⁻¹ s⁻¹

Q: Which results are given for “alcohol dehydrogenase (KpADH, SEQ ID NO: 1) mutant M63, K36I/T132D/N159D/K210E/T248A/Q272L (Vanderwaltozyma polyspora DSM 70294; K210E/K36I/N159D/Q272L/T132D/T248A)”?
A: Km [6]: 830 ± 200 µM; Vmax [6]: 32.8 µmol/min/mg; kcat [6]: 22.8 ± 2.14 s⁻¹; kcat/Km [6]: 27500 M⁻¹ s⁻¹

Q: How did the Km [7] turn out when “wild-type alcohol dehydrogenase (KpADH), SEQ ID NO: 1 (Vanderwaltozyma polyspora DSM 70294)” was run?
A: Its Km is 950 ± 100 µM.

Q: And the Vmax [7]?
A: Its Vmax is 31.8 µmol/min/mg.

Q: What about the kcat [7] of the same compound?
A: The kcat was 20.1 ± 1 s⁻¹.

Q: What about the kcat/Km [7] of the same compound?
A: Its kcat/Km is 21200 M⁻¹ s⁻¹.
